Where “and” joins values, the source holds several entries; their conditions need not be identical. Equal values may be shown once. Marks after values point to notes of the source that are not given here.
What was measured:
IL-18 = IL-18 levels in small intestine and serum after oral rhLF or bLF (ELISA); assay type: in vivo, mice; conditions: for IL-18 level, Intestinal Extract / IL-18 level, Serum: 24 h after last dose
Protocol: Recombinant human lactoferrin and bovine lactoferrin were orally administered to mice, and the production of IL-18 in the small intestine was measured.
Mice were treated for three days daily with 65 mg/kg/day of rhLF, 300 mg/kg/day of rhLF or 300 mg/kg/day of bLF. For a control, mice were only administered the pharmaceutical carrier. Twenty-four hours following administration of the LF or control for 3 days, animals were weighed and blood and serum were collected. Serum was used for cytokine ELISA assays.
Also, at these time points, animals were sacrificed and the small intestinal tissue was removed for further analysis. Small intestinal epithelium was homogenized using a lysis buffer consisting of PBS, 1% Nonidet P-40, 0.5% sodium deoxycholate, and 0.1% sodium dodecyl sulphate containing 10 μg/ml PhenylMetheylsulfonyl fluoride. Homogenate was centrifuged at 15,000 rpm for 10 minutes and the supernatant stored at −80 C till it was tested for IL-18 levels.

YAC targets = experiment: NK activity ex vivo after oral rhLF (LDH release test); assay type: in vivo, Balb/c naïve mice; conditions: for % Cytotoxicity Final (NK activity): oral 300 mg/kg/day 3 days, spleen NK cells day 4
Protocol: Balb/c naïve mice were treated orally with rhLF or placebo once a day for 3 days (see Table 4).
(§1) On day 4, mice were sacrificed and spleens were collected. NK cells were separated using a magnetic bead cell sorting assay (MACS anti-NK-DX5) and counted. Cells were then tested in vitro for NK-activity against YAC targets using a lactate dehydrogenase (LDH) release test.
as §1, with “Balb/c naïve mice were treated orally with rhLF or placebo once a” for “On”, “for 3 days. One day later (day 4),” for “4,”, “spleens” for “spleens were”

[1] = tested on: O12 human oropharyngeal squamous cell carcinoma tumor cells; experiment: Intratumoral rhLF in O12 tumors in nude mice; assay type: in vivo, athymic nude mice
Protocol: O12 human oropharyngeal squamous cell carcinoma tumor cells were injected to the right flank of athymic nude mice. Recombinant human lactoferrin and vehicle controls were dosed via intratumoral injection. Each animal was administered different concentrations of rhLF in 50 μL doses consisting of four separate injections of approximately 12.5 μL of the dose, at different directions and angles (approximately S/N/E/W) to ensure that the dose was distributed evenly throughout the tumor (fanning).
In this study, rhLF was administered directly into the tumor. Each animal was tracked daily for tumor growth by external caliper measurements of the protruding tumor.

metastatic cancer = experiment: Oral rhLF in human patients with metastatic cancer, tumor size by CT; assay type: in vivo
Protocol: Recombinant human lactoferrin was orally administered to human patients with a range of metastatic cancer types that had failed standard chemotherapy in two different studies conducted in multiple centers in four countries (Argentina, Brazil, Chile, U.S.) RhLF was administered at doses of 1.5 to 9 grams daily in two divided doses in cycles of 14 each with a 14 day gap.
Tumor size progression was monitored through CT scans and tumor markers where available. CT scans were performed at baseline and after each 8-week period once treatment was initiated, and also compared with a pre-baseline scan conducted prior to enrollment in the study. Tumor markers are measured every 4 weeks. Blood samples were collected to measure subclasses of circulating lymphocytes and NK cell activity. Plasma, serum and blood cell extract samples were collected to measure circulating IL-18, IL-1, IL-2, and IL-4, IL-5, IL-10, IL-12 and IFN-γ.

GM-CSF = GM-CSF production in small intestine after oral rhLF (ELISA); assay type: in vivo, mice; conditions: oral 300 mg/kg/day for three days
Protocol: Recombinant human lactoferrin or placebo were orally administered to mice, and the production of GM-CSF in the small intestine was measured.
Mice (5 animals per group) were treated for three days daily with 300 mg/kg/day of rhLF. For a control, mice were only administered the pharmaceutical carrier. Twenty-four hours following administration of the LF or placebo for 3 days, animals were and the small intestinal tissue was removed for further analysis. Small intestinal epithelium was homogenized using a lysis buffer consisting of PBS, 1% Nonidet P-40, 0.5% sodium deoxycholate, and 0.1% sodium dodecyl sulphate containing 10 μg/ml PhenylMetheylsulfonyl fluoride. Homogenate was centrifuged at 15,000 rpm for 10 minutes and the supernatant stored at −80 C till it was tested for GM-CSF levels using an ELISA kit.

[2] = tested on: murine squamous carcinoma cell line (SCCVII); experiment: SCCVII floor-of-mouth tumor growth, oral rhLF and/or cisplatin; assay type: in vivo, C3H mice; conditions: rhLF 200 mg/Kg oral once daily days 5-12, no cisplatin
Protocol: A murine squamous carcinoma cell line (SCCVII) was injected into the floor of the mouth through the neck skin of immunocompetent C3H mice (Day 0). […] Tumors were measured in three dimensions with calipers.
Tumor-bearing mice were randomized into a control group and seven groups receiving rhLF and/or cisplatin. RhLF (4 mg; 200 mg/Kg) was administered once daily by oral gavage for 8 days on days 5 through 12. Cisplatin was administered as a single dose of 5 mg/Kg given intraperitoneally either at the start of rhLF (day 5), in the middle (day 8) or at the end (day 12) of rhLF therapy. Animals were sacrificed on day 12 post-implantation and the residual tumor masses were measured and processed for later additional analyses.
A murine squamous carcinoma cell line (SCCVII) was injected into the floor of the mouth through the neck skin of immunocompetent C3H mice (Day 0) as described in Example 6. On Day 5 days after initial implantation, tumors were measured for the baseline, then treated with either cisplatin (Day 8, i.p., 5 mg/kg) alone or cisplatin plus three doses of oral rhLF (daily by gavage for 7-8 days on days 5 through 11/12). Animals were sacrificed on Day 11/12 and tumors measured.

[3] = oral 65 mg/kg/day for three days
[4] = oral 65 mg/kg/day rhLF versus 300 mg/kg bLF
[5] = oral 300 mg/kg/day for three days
[6] = oral 300 mg/kg/day rhLF versus 300 mg/kg bLF

B1: rhLF: recombinant human lactoferrin, a single chain metal binding glycoprotein (protein, UniProt P02788 20-710, looked up)
Lactotransferrin: GRRRSVQWCAVSQPEATKCFQWQRNMRKVRGPPVSCIKRDSPIQCIQAIAENRADAVTLDGGFIYEAGLAPYKLRPVAAEVYGTERQPRTHYYAVAVVKKGGSFQLNELQGLKSCHTGLRRTAGWNVPIGTLRPFLNWTGPPEPIEAAVARFFSASCVPGADKGQFPNLCRLCAGTGENKCAFSSQEPYFSYSGAFKCLRDGAGDVAFIRESTVFEDLSDEAERDEYELLCPDNTRKPVDKFKDCHLARVPSHAVVARSVNGKEDAIWNLLRQAQEKFGKDKSPKFQLFGSPSGQKDLLFKDSAIGFSRVPPRIDSGLYLGSGYFTAIQNLRKSEEEVAARRARVVWCAVGEQELRKCNQWSGLSEGSVTCSSASTTEDCIALVLKGEADAMSLDGGYVYTAGKCGLVPVLAENYKSQQSSDPDPNCVDRPVEGYLAVAVVRRSDTSLTWNSVKGKKSCHTAVDRTAGWNIPMGLLFNQTGSCKFDEYFSQSCAPGSDPRSNLCALCIGDEQGENKCVPNSNERYYGYTGAFRCLAENAGDVAFVKDVTVLQNTDGNNNEAWAKDLKLADFALLCLDGKRKPVTEARSCHLAMAPNHAVVSRMDKVERLKQVLLHQQAKFGRNGSDCPDKFCLFQSETKNLLFNDNTECLARLHGKTTYEKYLGPQYVAGITNLKKCSTSPLLEACEFLRK
- IL-18 Intestinal Extract % Increase Over Control (IL-18; [3]): 725%
- IL-18 Serum % Increase Over Control (IL-18; [3]): 84%
- IL-18 level, Intestinal Extract (IL-18; [3]): 7,879 pg
- IL-18 level, Serum (IL-18; [3]): 259 pg
- IL-18 Intestinal Extract % Increase Over Blf (IL-18; [4]): 75%
- IL-18 Serum % Increase Over Blf (IL-18; [4]): 94%
- IL-18 Intestinal Extract % Increase Over Control (IL-18; [5]): 775%
- IL-18 Serum % Increase Over Control (IL-18; [5]): 132%
- IL-18 level, Intestinal Extract (IL-18; [5]): 8,350 pg
- IL-18 level, Serum (IL-18; [5]): 328 pg
- IL-18 Intestinal Extract % Increase Over Blf (IL-18; [6]): 85%
- IL-18 Serum % Increase Over Blf (IL-18; [6]): 145%
- amounts of IL-18 in both the serum and in the intestinal extract (IL-18; oral, both doses (65 and 300 mg/kg/day)): significantly enhanced
- relative increase of NK activity over placebo-treated animals (YAC targets; 30:1 E:T ratio): 243%
- % Cytotoxicity Increased over ctrl (YAC targets; E:T ratio 3.7:1, versus placebo group): 0%
- % Cytotoxicity Increased over ctrl (YAC targets; E:T ratio 7.5:1, versus placebo group): 0%
- % Cytotoxicity Increased over ctrl (YAC targets; E:T ratio 15:1, versus placebo group): 1.3%
- % Cytotoxicity Increased over ctrl (YAC targets; E:T ratio 30:1, versus placebo group): 7** %
- % Cytotoxicity Final (NK activity) (YAC targets; E:T ratio 3.7:1): 0%
- % Cytotoxicity Final (NK activity) (YAC targets; E:T ratio 7.5:1): 0.44%
- % Cytotoxicity Final (NK activity) (YAC targets; E:T ratio 15:1): 4.12%
- % Cytotoxicity Final (NK activity) (YAC targets; E:T ratio 30:1, 300 mg/kg/day): 10% and 9.81%
- reduction of rates of tumor growth versus pooled placebo ([1]; Group A, single intratumoral dose (100-500 μg), day 11 after the administration): 50%
- reduction of rates of tumor growth versus pooled control group ([1]; Group C, intratumoral twice daily for 8 days (25-500 μg per dose)): 56%
- Post Treatment 1 % Growth of tumor (metastatic cancer; Patient # 007, Lung, 7.5 weeks, pretreatment 160% (5.5 weeks)): 13%
- Post Treatment 2 % Growth of tumor (metastatic cancer; Patient # 007, Lung, 8.5 weeks, pretreatment 160% (5.5 weeks)): 12%
- Post Treatment 2 % Growth of tumor (metastatic cancer; Patient # 102, Ovarian, 8.5 weeks, pretreatment 30% (21 weeks)): −7%
- Post Treatment 1 % Growth of tumor (metastatic cancer; Patient # 102, Ovarian, 10.5 weeks, pretreatment 30% (21 weeks)): −5%
- Post Treatment 2 % Growth of tumor (metastatic cancer; Patient # 104, Gastric, 7 weeks, pretreatment 25% (5.5 weeks)): −5%
- Post Treatment 1 % Growth of tumor (metastatic cancer; Patient # 104, Gastric, 10 weeks, pretreatment 25% (5.5 weeks)): 10%
- Post Treatment 1 % Growth of tumor (metastatic cancer; Patient # 106, Melanoma, 11 weeks, pretreatment 24% (19 weeks)): −18%
- Post Treatment 2 % Growth of tumor (metastatic cancer; Patient # 204, Breast, 6.5 weeks, pretreatment 40% (8 weeks)): 0%
- Post Treatment 1 % Growth of tumor (metastatic cancer; Patient # 204, Breast, 10 weeks, pretreatment 40% (8 weeks)): 0%
- patients with stable disease by the RECIST criteria (metastatic cancer; oral 1.5 to 9 grams daily, nine of nineteen evaluable patients, first post-treatment scan): 47%
- GM-CSF Increase over Placebo (GM-CSF): 19.4% (p < 0.01)
- GM-CSF level, Mean (SEM) (GM-CSF; 5 animals per group): 7.74 (0.19) pg
- TGI (%) Relative to Placebo [2]: 33%
